Source: PMC5021983

Legend:
Assay in all cases: FRET titration
histone H1 (Drosophila) = conditions: EMSA: 5 nM nucleosome, 130 mM NaCl, 10% glycerol, 10 mM Tris-HCl pH 8, 0.005% Tween 20, 0.5x TE, room temperature 3 min, 5% native PAGE in 0.3x TTE; FRET: 5 nM …
MeCP2 (human) = conditions: EMSA: 5 nM nucleosome, 130 mM NaCl, 10% glycerol, 10 mM Tris-HCl pH 8, 0.005% Tween 20, 0.5x TE, room temperature 3 min, 5% native PAGE in 0.3x TTE; FRET: 5 nM …
Gal4 = conditions: EMSA: 5 nM nucleosome, 130 mM NaCl, 10% glycerol, 10 mM Tris-HCl pH 8, 0.005% Tween 20, 0.5x TE, room temperature 3 min, 5% native PAGE in 0.3x TTE, FRET: 5 nM …

Question: “601 mononucleosome with Gal4 site, 247 bp (FRET construct)” was tested. Which K half (histone H1 (Drosophila)) did it give?
Answer: Its K half is 12.1 nM.

Question: What about the K half (MeCP2 (human)) of the same substance?
Answer: Its K half is 20.7 nM.

Question: And the K half (Gal4; no CAP, 5 nM nucleosome, Hill coefficient -3.76 ± 2.16)?
Answer: Its K half is 3.06 nM.

Question: And the K half (Gal4; nucleosome prebound with 25 nM MeCP2, Hill coefficient -1.47 ± 0.22)?
Answer: Its K half is 12.2 nM.
